Measurements published in US20040265880A1, “Genomic and proteomic approaches for the development of cell culture medium” (Sigma-Aldrich Co., priority 2003, published 2004).

System: HEK-293 cells
Test: Resazurin high throughput proliferation assay, HEK-293
Format: cell-based, human
Conditions: versus base medium with 1% FBS; each ligand at three concentrations
Experimental: Resazurin is a metabolic dye which is converted to a fluorescent product. The greater the amount of the fluorescent product that is generated, the more metabolism, which directly correlates with cell number.
In this assay, resazurin was added to HEK-293 cells plated in each well of a 24-well assay plate containing a test medium containing one of the 16 ligands corresponding to the positive growth factors/cytokines and incubated at 37° C. After a 30 minute incubation, the plate was analyzed on a standard fluorescence plate reader. A higher RFU value from the plate reader translates to a higher cell density in the wells.
Briefly, the 16 ligands corresponding to positive growth factor/cytokine receptors were tested in the resazurin assay, each ligand at three different concentrations. […]
Cells were plated in each well of a 24-well tissue culture treated plate containing 1 ml of a base medium. […] After sufficient incubation time to convert some of the resazurin, the fluorescence was measured on a HTS 7000 Plus BioAssay Reader (Perkin-Elmer, Boston, Mass.). Readings were taken once a day until the culture was confluent (typically about 4 days). A plate with base medium only (no cells) was used as a blank and subtracted from the RFU reading to establish the final RFU values.

B1: oncostatin M (protein, UniProt P13725 26-221, looked up)
Oncostatin-M: AAIGSCSKEYRVLLGQLQKQTDLMQDTSRLLDPYIRIQGLDVPKLREHCRERPGAFPSEETLRGLGRRGFLQTLNATLGCVLHRLADLEQRLPKAQDLERSGLNIEDLEKLQMARPNILGLRNNIYCMAQLLDNSDTAEPTKAGRGASQPPTPTPASDAFQRKLEGCRFLHGYHRFMHSVGRVFSKWGESPNRSRR
notes: ligand of oncostatin M receptor
  effect on HEK-293 proliferation (RFU, resazurin): significant effect
